Measured values reported in article PMC8290868 (Cell Discovery, 2021).

Molecular target: T1, SARS-CoV-2 S protein extracellular domain (S-ECD), prefusion-stabilised trimer (SARS-CoV-2, Wuhan-Hu-1 (wild type), UniProt P0DTC2, proline substitution at residue 986 | proline substitution at residue 987 | …)
T1 construct: also called trimeric SARS-CoV-2 S protein; S trimer
Assay: cryo-EM structure
Conditions: both partners purified

B1: 7B8 Fab fragment (Fab, V domains shown)
VH: QVQLVESGGGVVQPGRSLRLSCAASGFIFSSYGMHWVRQAPGKGLEWVAVIWFDGSNKYYADSVKGRFTISRDNSKNTLYLQMNSLRAEDTAVYYCARETVSYGMDVWGQGTTVTVSS
VL: NIQMTQSPSAMSASVGDRVTITCRARQGISNYLAWFQQKPGKVPKHLIYAASSLLSGVPSRFSGSGSETEFTLTISSLQPEDFATYYCLQHNSYPYTFGQGTKLEIK
notes: also called Ab4
binding result: binds
